Data as given in patent publication US20250188184A1.

The binders below were run against CD3 (target of the Pool 1 CD3.23 screen) (assay: Octet, crude lysate).
Sequence of CD3 (target of the Pool 1 CD3.23 screen) (P07766 23-126): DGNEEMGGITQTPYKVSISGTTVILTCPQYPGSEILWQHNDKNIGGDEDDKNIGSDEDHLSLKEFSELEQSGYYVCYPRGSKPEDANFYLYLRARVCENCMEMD

Kd	Binder
9.6 nM	CD3.98 (AC3427) (bispecific antibody, V domains shown) VH: EVQLLESGGGIVQPGGSLKLSCAASGFTFNTYAMNWVRQAPGKGLEWVARIRSKYNNYATYYADSVKDRFTISRDDSKNTVSLQMNNLKTEDTAVYYCVRHENFGNSYVSWFAHWGQGTLVTVSS VL: ELVVTQEPSLTVSPGGTVTLTCRSSNGAVTSSNYANWVQQKPGQAPRGLIGGTNKRAPGTPARFSGSLLGGKAALTLSGVQPEDEAVYYCALWYPNLWVFGGGTKLTVL
5.5 nM	CD3.102 (AC3431) (bispecific antibody, V domains shown) VH: EVQLLESGGGIVQPGGSLKLSCAASGFTFNTYAMNWVRQAPGKGLEWVARIRSKYNNYATYYADSVKDRFTISRDDSKNTVYLQMNYLKTEDTAVYYCVRHENFGNSYVSWFAHWGQGTLVTVSS VL: ELVVTQEPSLTVSPGGTVTLTCRSSNGAVTSSNYANWVQQKPGQAPRGLIGGTNKRAPGTPARFSGSLLGGKAALTLSGVQPEDEAVYYCALWYPNLWVFGGGTKLTVL
4.6 nM	CD3.104 (AC3433) (bispecific antibody, V domains shown) VH: EVQLLESGGGIVQPGGSLKLSCAASGFTFNTYAMNWVRQAPGKGLEWVARIRSKYNNYATYYADSVKDRFTISRDDSKNTVYLQMNNLKTEDTAVYYCVRHENFGNSYVSWFAHWGQGTLVTVSS VL: ELVVTQEPSLTVSPGGTVTLTCRSSNGAVTSSNYANWVQQKPGQAPRGLIGGTNKRAPGTPARFSGSLQGGKAALTLSGVQPEDEAVYYCALWYPNLWVFGGGTKLTVL
3.2 nM	CD3.108 (AC3437) (bispecific antibody, V domains shown) VH: EVQLLESGGGIVQPGGSLKLSCAASGFTFNTYAMNWVRQAPGKGLEWVARIRSKYNNYATYYADSVKDRFTISRDDSKNTVYLQMNNLKTEDTAVYYCVRHENFGNSYVSWFAHWGQGTLVTVSS VL: ELVVTQEPSLTVSPGGTVTLTCRSSNGAVTSSNYANWVQQKPGQAPRGLIGGTNKRAPGTPARFSGSKLGGKAALTLSGVQPEDEAVYYCALWYPNLWVFGGGTKLTVL
4.8 nM	CD3.101 (AC3430) (bispecific antibody, V domains shown) VH: EVQLLESGGGIVQPGGSLKLSCAASGFTFNTYAMNWVRQAPGKGLEWVARIRSKYNNYATYYADSVKDRFTISRDDSKNTVYLQMNSLKTEDTAVYYCVRHENFGNSYVSWFAHWGQGTLVTVSS VL: ELVVTQEPSLTVSPGGTVTLTCRSSNGAVTSSNYANWVQQKPGQAPRGLIGGTNKRAPGTPARFSGSLLGGKAALTLSGVQPEDEAVYYCALWYPNLWVFGGGTKLTVL
7.3 nM	CD3.107 (AC3436) (bispecific antibody, V domains shown) VH: EVQLLESGGGIVQPGGSLKLSCAASGFTFNTYAMNWVRQAPGKGLEWVARIRSKYNNYATYYADSVKDRFTISRDDSKNTVYLQMNNLKTEDTAVYYCVRHENFGNSYVSWFAHWGQGTLVTVSS VL: ELVVTQEPSLTVSPGGTVTLTCRSSNGAVTSSNYANWVQQKPGQAPRGLIGGTNKRAPGTPARFSGSSLGGKAALTLSGVQPEDEAVYYCALWYPNLWVFGGGTKLTVL
8.3 nM	CD3.109 (AC3438) (bispecific antibody, V domains shown) VH: EVQLLESGGGIVQPGGSLKLSCAASGFTFNTYAMNWVRQAPGKGLEWVARIRSKYNNYATYYADSVKDRFTISRDDSKNTVYLQMNNLKTEDTAVYYCVRHENFGNSYVSWFAHWGQGTLVTVSS VL: ELVVTQEPSLTVSPGGTVTLTCRSSNGAVTSSNYANWVQQKPGQAPRGLIGGTNKRAPGTPARFSGSNLGGKAALTLSGVQPEDEAVYYCALWYPNLWVFGGGTKLTVL
7.1 nM	CD3.100 (AC3429) (bispecific antibody, V domains shown) VH: EVQLLESGGGIVQPGGSLKLSCAASGFTFNTYAMNWVRQAPGKGLEWVARIRSKYNNYATYYADSVKDRFTISRDDSKNTVYLQMNQLKTEDTAVYYCVRHENFGNSYVSWFAHWGQGTLVTVSS VL: ELVVTQEPSLTVSPGGTVTLTCRSSNGAVTSSNYANWVQQKPGQAPRGLIGGTNKRAPGTPARFSGSLLGGKAALTLSGVQPEDEAVYYCALWYPNLWVFGGGTKLTVL
5.9 nM	CD3.99 (AC3428) (bispecific antibody, V domains shown) VH: EVQLLESGGGIVQPGGSLKLSCAASGFTFNTYAMNWVRQAPGKGLEWVARIRSKYNNYATYYADSVKDRFTISRDDSKNTVYLQMNELKTEDTAVYYCVRHENFGNSYVSWFAHWGQGTLVTVSS VL: ELVVTQEPSLTVSPGGTVTLTCRSSNGAVTSSNYANWVQQKPGQAPRGLIGGTNKRAPGTPARFSGSLLGGKAALTLSGVQPEDEAVYYCALWYPNLWVFGGGTKLTVL
8.9 nM	CD3.110 (AC3439) (bispecific antibody, V domains shown) VH: EVQLLESGGGIVQPGGSLKLSCAASGFTFNTYAMNWVRQAPGKGLEWVARIRSKYNNYATYYADSVKDRFTISRDDSKNTVYLQMNNLKTEDTAVYYCVRHENFGNSYVSWFAHWGQGTLVTVSS VL: ELVVTQEPSLTVSPGGTVTLTCRSSNGAVTSSNYANWVQQKPGQAPRGLIGGTNKRAPGTPARFSGSTLGGKAALTLSGVQPEDEAVYYCALWYPNLWVFGGGTKLTVL
4.9 nM	CD3.105 (AC3434) (bispecific antibody, V domains shown) VH: EVQLLESGGGIVQPGGSLKLSCAASGFTFNTYAMNWVRQAPGKGLEWVARIRSKYNNYATYYADSVKDRFTISRDDSKNTVYLQMNNLKTEDTAVYYCVRHENFGNSYVSWFAHWGQGTLVTVSS VL: ELVVTQEPSLTVSPGGTVTLTCRSSNGAVTSSNYANWVQQKPGQAPRGLIGGTNKRAPGTPARFSGSLLEGKAALTLSGVQPEDEAVYYCALWYPNLWVFGGGTKLTVL
6.1 nM	CD3.106 (AC3435) (bispecific antibody, V domains shown) VH: EVQLLESGGGIVQPGGSLKLSCAASGFTFNTYAMNWVRQAPGKGLEWVARIRSKYNNYATYYADSVKDRFTISRDDSKNTVYLQMNNLKTEDTAVYYCVRHENFGNSYVSWFAHWGQGTLVTVSS VL: ELVVTQEPSLTVSPGGTVTLTCRSSNGAVTSSNYANWVQQKPGQAPRGLIGGTNKRAPGTPARFSGSLDGGKAALTLSGVQPEDEAVYYCALWYPNLWVFGGGTKLTVL
